Laboratory results: US20040228866A1, “Suppressor genes” (Ludwig Institute for Cancer Research, priority 2000, published 2004)

T1: p73α (Homo sapiens, UniProt O15350)
T1 construct: expressed in transfected cells; host or cells: H1299 and Saos-2; part of the results from in vitro translation
T1 sequence (O15350 1-636): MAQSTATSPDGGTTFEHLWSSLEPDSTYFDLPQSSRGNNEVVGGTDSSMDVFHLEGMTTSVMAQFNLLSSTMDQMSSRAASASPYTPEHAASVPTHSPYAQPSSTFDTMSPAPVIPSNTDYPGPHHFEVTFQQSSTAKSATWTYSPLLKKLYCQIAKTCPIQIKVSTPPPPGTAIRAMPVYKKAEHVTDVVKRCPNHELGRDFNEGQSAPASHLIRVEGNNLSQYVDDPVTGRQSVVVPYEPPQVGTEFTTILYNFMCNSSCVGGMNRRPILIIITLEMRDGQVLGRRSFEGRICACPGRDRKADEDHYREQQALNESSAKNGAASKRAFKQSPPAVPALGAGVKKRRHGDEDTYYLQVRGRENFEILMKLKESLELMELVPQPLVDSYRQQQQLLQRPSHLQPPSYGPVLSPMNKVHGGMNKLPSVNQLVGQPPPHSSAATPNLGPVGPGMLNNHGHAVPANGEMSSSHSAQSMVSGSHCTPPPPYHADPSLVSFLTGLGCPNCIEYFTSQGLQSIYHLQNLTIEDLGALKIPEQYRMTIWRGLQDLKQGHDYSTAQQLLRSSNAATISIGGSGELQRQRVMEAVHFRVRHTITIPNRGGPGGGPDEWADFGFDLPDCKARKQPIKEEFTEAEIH

B1: ASPP1: Apoptosis Stimulating Protein 1, protein of SEQ ID NO: 2, expressed from a transfected plasmid (protein, listed as Homo sapiens)
chain: MMPMILTVFLSNNEQILTEVPITPETTCRDVVEFCKEPGEGSCHLAEVWRGNERPIPFDHMMYEHLQIWGPRREEVKFFLRHEDSPTENSEQGGRQTQEQRTQRNVINVPGDKRTEYGVGNPRVELTLSELQDMAARQQQQIENQQQMLVAKEQRLHFLKQQERRQQQSISENEKLQKLKERVEAQENKLKKIRAMRGQVDYSKIMNGNLSAEIERFSAMFQEKKQEVQTAILRVDQLSQQLEDLKKGKLNGFQSYNGKLTGPAAVELKRLYQELQIRNQLNQEQNSKLQQQKELLNKRNMEVAMMDKRISELRERLYGKKIQLNRVNGTSSPQSPLSTSGRVAAVGPYIQVPSAGSFPVLGDPIKPQSLSIASNAAHGRSKSANDGNWPTLKQNSSSSVKPVQVAGADWKDPSVEGSVKQGTVSSQPVPFSALGPTEKPGIEIGKVPPPIPGVGKQLPPSYGTYPSPTPLGPGSTSSLERRKEGSLPRPSAGLPSRQRPTLLPATGSTPQPGSSQQIQQRISVPPSPTYPPAGPPAFPAGDSKPELPLTVAIRPFLADKGSRPQSPRKGPQTVNSSSIYSMYLQQATPPKNYQPAAHSALNKSVKAVYGKPVLPSGSTSPSPLPFLHGSLSTGTPQPQPPSESTEKEPEQDGPAAPADGSTVESLPRPLSPTKLTPIVHSPLRYQSDADLEALRRKLANAPRPLKKRSSITEPEGPGGPNIQKLLYQRFNTLAGGMEGTPFYQPSPSQDFMGTLADVDNGNTNANGNLEELPPAQPTAPLPAEPAPSSDANDNELPSPEPEELICPQTTHQTAEPAEDNNNNVATVPTTEQIPSPVAEAPSPGEEQVPPAPLPPASHPPATSTNKRTNLKKPNSERTGHGLRVRFNPLALLLDASLEGEFDLVQRIIYEVEDPSKPNDEGITPLHNAVCAGHHHIVKFLLDFGVNVNAADSDGWTPLHCAASCNSVHLCKQLVESGAAIFASTISDIETAADKCEEMEEGYIQCSQFLYGVQEKLGVMNKGVAYALWDYEAQNSDELSFHEGDALTILRRKDESETEWWWARLGDREGYVPKNLLGLYPRIKPRQRTLA
B2: ASPP2: full length 1128 amino acid protein, SEQ ID NO: 4 (protein, listed as Homo sapiens)
chain: MMPMFLTVYLSNNEQHFTEVPVTPETICRDVVDLCKEPGESDCHLAEVWCGSERPVADNERMFDVLQRFGSQRNEVRFFLRHERPPGRDIVSGPRSQDPSLKRNGVKVPGEYRRKENGVNSPRMDLTLAELQEMASRQQQQIEAQQQLLATKEQRLKFLKQQDQRQQQQVAEQEKLKRLKEIAENQEAKLKKVRALKGHVEQKRLSNGKLVEEIEQMNNLFQQKQRELVLAVSKVEELTRQLEMLKNGRIDSHHDNQSAVAELDRLYKELQLRNKLNQEQNAKLQQQRECLNKRNSEVAVMDKRVNELRDRLWKKKAALQQKENLPVSSDGNLPQQAASAPSRVAAVGPYIQSSTMPRMPSRPELLVKPALPDGSLVIQASEGPMKIQTLPNMRSGAASQTKGSKIHPVGPDWSPSNADLFPSQGSASVPQSTGNALDQVDDGEVPLREKEKKVRPFSMFDAVDQSNAPPSFGTLRKNQSSEDILRDAQVANKNVAKVPPPVPTKPKQINLPYFGQTNQPPSDIKPDGSSQQLSTVVPSMGTKPKPAGQQPRVLLSPSIPSVGQDQTLSPGSKQESPPAAAVRPFTPQPSKDTLLPPFRKPQTVAASSIYSMYTQQQAPGKNFQQAVQSALTKTHTRGPHFSSVYGKPVIAAAQNQQQHPENIYSNSQGKPGSPEPETEPVSSVQENHENERIPRPLSPTKLLPFLSNPYRNQSDADLEALRKKLSNAPRPLKKRSSITEPEGPNGPNIQKLLYQRTTIAAMETISVPSYPSKSASVTASSESPVEIQNPYLHVEPEKEVVSLVPESLSPEDVGNASTENSDMPAPSPGLDYEPEGVPDNSPNLQNNPEEPNPEAPHVLDVYLEEYPPYPPPPYPSGEPEGPGEDSVSMRPPEITGQVSLPPGKRTNLRKTGSERIAHGMRVKFNPLALLLDSSLEGEFDLVQRIIYEVDDPSLPNDEGITALHNAVCAGHTEIVKFLVQFGVNVNAADSDGWTPLHCAASCNNVQVCKFLVESGAAVFAMTYSDMQTAADKCEEMEEGYTQCSQFLYGVQEKMGIMNKGVIYALWDYEPQNDDELPMKEGDCMTIIHREDEDEIEWWWARLNDKEGYVPRNLLGLYPRIKPRQRSLA

Legend:
p53 [1] = molecular target: T2, p53 (Homo sapiens, UniProt P04637); test: Transient luciferase reporter assay of p53 transactivation function in Saos-2 cells; format: cell-based; conditions: for stimulation of the promoter activity of mdm2 and cyclin G: co-expression with p53; for promoter activity of PIG-3: transient transfection reporter assay
T2 construct: expressed in transfected cells
Protocol: (§1) The amount of luciferase expression was determined as previously described in Samuels-Lev et al. (Mol. Cell 8:781-94, 2001, herein incorporated by reference).
(§2) The amount of transactivation function was determined as described in Example 4.
(§3) To determine the amount of protein expression, Saos-2 cells (5×10^5) were plated 24 hours prior to transfection in 6 cm dishes. […] To determine the amount of gene activation, after transfection, the cells were lysed in Reporter Lysis Buffer 16-24 hours post-wash and assayed using the Luciferase Assay kit (Promega, Wis.). The fold activation of a particular reporter was determined by the activity of the transfected plasmid above the activity of vector alone.
(§4) The expression level of transfected proteins was detected using 40 μg of the respective lysates using the antibodies V5, DX.5410, DO1, 4A4 and p73. […] Results were derived from at least three independent experiments.

p53 [2] = molecular target: T3, p53 (Homo sapiens, UniProt P04637, R181C); test: as above; format: cell-based; conditions: Bax-luc, FIG. 6B
T3 construct: expressed in transfected cells
Protocol: as §1, §2, §3, §4

E2F1 = molecular target: T4, E2F1 (Homo sapiens, UniProt Q01094); test: Transient reporter assay of E2F1 transactivation function; format: cell-based; conditions: co-expression with E2F1, FIGS. 2C and 2D
T4 construct: expressed in transfected cells
T4 sequence (Q01094 whole entry, species assumed): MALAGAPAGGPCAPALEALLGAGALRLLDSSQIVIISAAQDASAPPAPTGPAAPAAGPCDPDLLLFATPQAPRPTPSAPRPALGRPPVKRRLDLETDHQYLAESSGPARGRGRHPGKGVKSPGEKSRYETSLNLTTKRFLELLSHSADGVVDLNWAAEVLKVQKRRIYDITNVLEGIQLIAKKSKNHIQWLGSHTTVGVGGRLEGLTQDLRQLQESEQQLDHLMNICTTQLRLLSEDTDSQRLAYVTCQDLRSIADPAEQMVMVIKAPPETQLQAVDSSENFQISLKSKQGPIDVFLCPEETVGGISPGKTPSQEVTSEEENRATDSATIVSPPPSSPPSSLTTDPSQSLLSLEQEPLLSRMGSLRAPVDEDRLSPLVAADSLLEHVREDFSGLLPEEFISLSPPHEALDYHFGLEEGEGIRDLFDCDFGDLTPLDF

Saos-2 cells = test: Apoptosis by flow cytometry (CD20-gated, sub-G1 DNA content) in transfected Saos-2 cells; format: cell-based; conditions: for effect on apoptotic function of p53 mutants 181L and 181C: FIG. 6A; for increase in percentage of cells that die of apoptosis with E2F1: co-expression with E2F1, FIG. 4B; for apoptotic function of p63γ and p73α: co-expression, FIG. 15; for apoptosis when expressed alone: no p53 co-expressed; for effect on apoptosis induced by p53H175-L: transcriptionally inactive, mitochondria-targeted mutant p53, FIG. 9A
Protocol: Apoptosis was identified by the expression of the co-transfected cell surface marker CD20, as described in Samuels-Lev et al. (Mol. Cell 8:781-94, 2001, herein incorporated by reference).
The number of apoptotic cells was determined using the methods described in Example 6.
Cells (10^6) were plated 24-48 hours prior to transfection in 10 cm plates. Cells were grown in DMEM supplemented with 10% FCS and transfected with 2 μg of a plasmid expressing CD20 as a transfection marker. Increasing amounts of ASPP1 and ASPP2 were transfected (7.5 μg, 15 μg and 25 μg). 36 hours after the transfection, both attached and floating cells were harvested and analysed using flow cytometry as follows. The transfected cells were gated based on the expression of CD20. The percentage of apoptotic cells was measured by the accumulation of cells with a sub-G1 DNA content derived from at least three individual experiments.
The transfected cells were analyzed by flow cytometry as described in Example 6.

p73α = molecular target: T1, p73α; test: Co-immunoprecipitation with p73α (in vitro translated; transfected H1299 and Saos-2 cells); format: binding; conditions: for interaction with p73α in vitro: in vitro translated proteins, FIGS. 12B and 12C; for interaction with p73α in vivo: transfected cells, FIGS. 13B and 13D
Protocol: V5-tagged ASPP1 and ASPP2 proteins were in vitro translated with cold methionine using the TNT T7 Quick coupled Transcription/Translation System (Promega). Cell lysates were incubated at 30° C. for 1 hour and then immunoprecipitated with anti-V5 antibody on protein G agarose beads.
The agarose beads were added to the binding reactions and incubated on a rotating wheel at 4° C. for 16 hours. The beads were then washed with PBS. The bound proteins were released in SDS gel sample buffer and analysed by 10% SDS-polyacrylamide gel electrophoresis (PAGE). The gels were wet transferred on to Protran nitrocellulose membrane and the resulting blots were first incubated with primary antibody and subsequently with the appropriate secondary HRP conjugated antibody (Dako). The blot was exposed to hyperfilm following the use of ECL substrate solution (Amersham Life Science).
Cells were transfected with 1 μg of p63γ or p73α in the presence or absence of 10 μg of ASPP1 or ASPP2. Cell lysate (1 mg) was immunoprecipitated with an antiASPP1 or ASPP2 antibody (see Example 2 and 7). The immunoprecipitates were separated on an SDS gel and the presence of p63 or p73 on the immunoblots detected by mouse monoclonal antibodies 4A4 (Santa Cruz) and ER-15 (Neomarker) to p63 or p73, respectively. The presence of ASPP1 or ASPP2 was detected with antibodies YX.7 and DX5410, respectively.
In some methods, larger amounts of cell lysate (2 mg) were immunoprecipitated with rabbit antibodies ASPP1.88 or BP77 to ASPP1 and ASPP2, respectively. The expression of ASPP1, ASPP2, p63γ and p73α was detected as described above.

Row | Molecule | stimulation of the transactivation function of p53 on the Bax promoter (p53 [1]; Example 16, FIGS. 14A and 14B) | stimulation of the promoter activity of mdm2 and cyclin G (p53 [1]) | promoter activity of PIG-3 (p53 [1]) | transactivation function of mutant p53 181C on the Bax gene promoter (p53 [2]) | transactivation function of E2F1 on cyclin A, b-myb and synthetic promoter 3×wt (E2F1) | effect on apoptotic function of p53 mutants 181L and 181C (Saos-2 cells) | transfected cells that die of apoptosis (Saos-2 cells; co-expressed with p53, Example 6, FIGS. 4A and 4C) | increase in percentage of cells that die of apoptosis with E2F1 (Saos-2 cells) | apoptotic function of p63γ and p73α (Saos-2 cells) | apoptosis when expressed alone (Saos-2 cells) | effect on apoptosis induced by p53H175-L (Saos-2 cells) | interaction with p73α in vitro (p73α) | interaction with p73α in vivo (p73α) | transactivation function of p53 on the mdm2 promoter (p53 [1]; FIG. 8C, Ikb even in the presence of ASPP2) | stimulation of the transactivation function of p53 on the Bax promoter (p53 [1]; co-expression with p53, FIG. 8B) | stimulation of the transactivation function of p53 (p53 [1]; versions of ASPP2 co-expressed with p53, FIG. 3) | percentage of apoptotic cells, co-expressed with p53 (Saos-2 cells; Example 11, p53 alone […]%) [%]
1 | B1 | around 6 fold | very modest stimulation | specifically stimulated | unable to stimulate | failed to stimulate | failed to enhance the apoptotic function of either p53 mutant | Approximately 50% | only an additive increase | enhanced the apoptotic function of p63γ and p73α | lower level of apoptosis | failed to enhance the apoptotic function of p53H175-L | co-immunoprecipitated | co-immunoprecipitated transfected p63γ and p73α | – | – | – | –
2 | B2 | – | very modest stimulation | specifically stimulated | unable to stimulate | failed to stimulate | failed to enhance the apoptotic function of either p53 mutant | – | only an additive increase | enhanced the apoptotic function of p63γ and p73α | lower level of apoptosis | failed to enhance the apoptotic function of p53H175-L | co-immunoprecipitated | co-immunoprecipitated transfected p63γ and p73α | very little effect | about 8 fold | about 7 fold | 30
